Data: patent US20250152742A1, “COMPOSITIONS AND METHODS FOR NEUROLOGICAL DISEASES” (Trames Bio, Inc., priority 2022, published 2025)
Changes are numbered by the printed parent chain. In names and notes the source's numbering stands.

Tested on: engineered chimeric receptor SEQ ID NO: 33 and its mutants (human α7-nAChR ligand binding domain / human GlyRα1 ion pore domain) in Lenti-X 293T cells
Assay: YFP fluorescence quenching anion reporter plate reader assay (percent quench, EC50)
Format: cell-based
Settings: for YFP fluorescence quenching using CNL001 (percent quench): receptor named in row; for YFP fluorescence quenching using Facinicline, 30 nM fac: ligand Facinicline 30 nM; for YFP fluorescence quenching using Facinicline, 300 nM fac: ligand Facinicline 300 nM; for YFP fluorescence quenching using Facinicline, 30 uM fac: ligand Facinicline 30 uM; for YFP fluorescence quenching using TC-6987, 1 uM tc6987: ligand TC-6987 1 uM; for YFP fluorescence quenching using TC-6987, 10 uM tc6987: ligand TC-6987 10 uM; for YFP fluorescence quenching using TC-6987, 500 uM tc6987: ligand TC-6987 500 uM; for YFP fluorescence quenching using Varenicline, 3 nM var: ligand Varenicline 3 nM; for YFP fluorescence quenching using Varenicline, 30 nM var: ligand Varenicline 30 nM; for YFP fluorescence quenching using Varenicline, 300 nM var: ligand Varenicline 300 nM; for YFP fluorescence quenching using Varenicline, 500 nM var: ligand Varenicline 500 nM; for YFP fluorescence quenching using Varenicline, 1 uM var: ligand Varenicline 1 uM
Summary of the method: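 Percent quench compares mean YFP signal over the final 10 s with the 15 s baseline before ligand, added in iodide-containing extracellular solution (pH 7.2). Cells were LX293T carrying a YFP anion reporter, transiently transfected with the channel construct; plates were preincubated 30 min at 37 °C.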

[1] = 1 nM CNL001, first column so headed
[2] = 1 nM CNL001, second column so headed
[3] = 3 nM brd (TC-5619/Bradanicline)
[4] = 10 nM CNL001, first column so headed
[5] = 10 nM CNL001, second column so headed
[6] = 30 nM brd (TC-5619/Bradanicline)
[7] = 50 nM CNL001, first column so headed
[8] = 50 nM CNL001, second column so headed
[9] = 100 nM CNL001, first column so headed
[10] = 100 nM CNL001, second column so headed
[11] = 300 nM brd (TC-5619/Bradanicline)
[12] = 1 uM CNL001, first column so headed
[13] = 1 uM CNL001, second column so headed

B1: CODA342: engineered receptor: L131R in SEQ ID NO: 33 (protein)
chain: MRCSPGGVWLALAASLLHVSLQGEFQRKLYKELVKNYNPLERPVANDSQPLTVYFSLSLLQIMDVDEKNQVLTTNIWLQMSWTDHYLQWNVSEYPGVKTVRFPDGQIWKPDILLYNSADERFDATFHTNVRVNSSGHCQYLPPGIFKSSCPMDLKNFPMDVQTCKLKFGSWSYGGWSLDLQMQEADISGYIPNGEWDLVGIPGKRSERFYECCKEPYPDVTFTVTMRRRMGYYLIQMYIPSLLIVILSWISFWINMDAAPARVGLGITTVLTMTTQSSGSRASLPKVSYVKAIDIWMAVCLLFVFSALLEYAAVNFVSRQHKELLRFRRKRRHHKSPMLNLFQEDEAGEGRFNFSAYGMGPACLQAKDGISVKGANNSNTTNPPPAPSKSPEEMRKLFIQRAKKIDKISRIGFPMAFLIFNMFYWIIYKIVRREDVHNQ
modifications: synthetic sequence of chimeric LGIC
[1]
  YFP fluorescence quenching using CNL001 (percent quench): 23.532%
[2]
  YFP fluorescence quenching using CNL001 (percent quench): 26.054%
1 nM brd (TC-5619/Bradanicline)
  YFP fluorescence quenching using TC-5619/Bradanicline (percent quench): −7.83%
[3]
  YFP fluorescence quenching using TC-5619/Bradanicline (percent quench): −12.89%
[4]
  YFP fluorescence quenching using CNL001 (percent quench): 43.69%
[5]
  YFP fluorescence quenching using CNL001 (percent quench): 54.016%
10 nM brd (TC-5619/Bradanicline)
  YFP fluorescence quenching using TC-5619/Bradanicline (percent quench): −10.47%
30 nM TC-6683
  YFP fluorescence quenching using TC-6683 (percent quench): −16.26%
[6]
  YFP fluorescence quenching using TC-5619/Bradanicline (percent quench): 59.48%
[7]
  YFP fluorescence quenching using CNL001 (percent quench): 59.955%
[8]
  YFP fluorescence quenching using CNL001 (percent quench): 56.091%
50 nM abt (ABT-126)
  YFP fluorescence quenching using ABT-126 (percent quench): −18.14%
[9]
  YFP fluorescence quenching using CNL001 (percent quench): 64.536%
[10]
  YFP fluorescence quenching using CNL001 (percent quench): 58.987%
100 nM CNL002
  YFP fluorescence quenching (percent quench): −17.2%
100 nM abt (ABT-126)
  YFP fluorescence quenching using ABT-126 (percent quench): −18.14%
100 nM azd0328
  YFP fluorescence quenching using AZD-0328 (percent quench): 1.79%
100 nM brd (TC-5619/Bradanicline)
  YFP fluorescence quenching using TC-5619/Bradanicline (percent quench): 70.19%
300 nM TC-6683
  YFP fluorescence quenching using TC-6683 (percent quench): −22.45%
300 nM abt (ABT-126)
  YFP fluorescence quenching using ABT-126 (percent quench): −0.81%
300 nM azd0328
  YFP fluorescence quenching using AZD-0328 (percent quench): 66.58%
[11]
  YFP fluorescence quenching using TC-5619/Bradanicline (percent quench): 75.11%
500 nM abt (ABT-126)
  YFP fluorescence quenching using ABT-126 (percent quench): 23.29%
[12]
  YFP fluorescence quenching using CNL001 (percent quench): 65.987%
[13]
  YFP fluorescence quenching using CNL001 (percent quench): 64.312%
1 uM CNL002
  YFP fluorescence quenching (percent quench): 8.12%
1 uM abt (ABT-126)
  YFP fluorescence quenching using ABT-126 (percent quench): 45.76%
1 uM brd (TC-5619/Bradanicline)
  YFP fluorescence quenching using TC-5619/Bradanicline (percent quench): 77.42%
3 uM TC-6683
  YFP fluorescence quenching using TC-6683 (percent quench): −13.48%
3 uM abt (ABT-126)
  YFP fluorescence quenching using ABT-126 (percent quench): 53.03%
10 uM abt (ABT-126)
  YFP fluorescence quenching using ABT-126 (percent quench): 64.08%
10 uM ach (acetylcholine)
  YFP fluorescence quenching (percent quench): −2.57%
30 uM CNL002
  YFP fluorescence quenching (percent quench): 57.24%
30 uM TC-6683
  YFP fluorescence quenching using TC-6683 (percent quench): −12.68%
30 uM abt (ABT-126)
  YFP fluorescence quenching using ABT-126 (percent quench): 71.98%
30 uM azd0328
  YFP fluorescence quenching using AZD-0328 (percent quench): 80.55%
50 uM abt (ABT-126)
  YFP fluorescence quenching using ABT-126 (percent quench): 73.98%
100 uM TC-6683
  YFP fluorescence quenching using TC-6683 (percent quench): −10.33%
100 uM abt (ABT-126)
  YFP fluorescence quenching using ABT-126 (percent quench): 73.51%
100 uM ach (acetylcholine)
  YFP fluorescence quenching (percent quench): −3.18%
1 mM ach (acetylcholine)
  YFP fluorescence quenching (percent quench): 78.98%
3 mM ach (acetylcholine)
  YFP fluorescence quenching (percent quench): 75.75%
  YFP fluorescence quenching using Facinicline, 30 nM fac: −6.2
  YFP fluorescence quenching using Facinicline, 300 nM fac: 76.75
  YFP fluorescence quenching using Facinicline, 30 uM fac: 81.71
  YFP fluorescence quenching using TC-6987, 1 uM tc6987: 2.51
  YFP fluorescence quenching using TC-6987, 10 uM tc6987: 46.22
  YFP fluorescence quenching using TC-6987, 500 uM tc6987: 68.33
Ligand Facinicline 10 uM
  YFP fluorescence quenching using Facinicline, 10 uM fac: 82.16
First column
  YFP fluorescence quenching using Varenicline, 3 nM var: 0.271
  YFP fluorescence quenching using Varenicline, 30 nM var: −4.935
  YFP fluorescence quenching using Varenicline, 300 nM var: 0.282
  YFP fluorescence quenching using Varenicline, 500 nM var: 23.777
  YFP fluorescence quenching using Varenicline, 1 uM var: 66.17
Second column
  YFP fluorescence quenching using Varenicline, 3 nM var: −3.613
  YFP fluorescence quenching using Varenicline, 30 nM var: −4.363
  YFP fluorescence quenching using Varenicline, 300 nM var: 2.32
  YFP fluorescence quenching using Varenicline, 500 nM var: 18.376
  YFP fluorescence quenching using Varenicline, 1 uM var: 66.088

B2: CODA337: engineered receptor: L131N in SEQ ID NO: 33 (protein)
chain: B1 chain with R131N
modifications: synthetic sequence of chimeric LGIC
[1]
  YFP fluorescence quenching using CNL001 (percent quench): 76.917%
[2]
  YFP fluorescence quenching using CNL001 (percent quench): 79.554%
[3]
  YFP fluorescence quenching using TC-5619/Bradanicline (percent quench): 71.02%
[4]
  YFP fluorescence quenching using CNL001 (percent quench): 79.479%
[5]
  YFP fluorescence quenching using CNL001 (percent quench): 79.506%
30 nM TC-6683
  YFP fluorescence quenching using TC-6683 (percent quench): −11.51%
[6]
  YFP fluorescence quenching using TC-5619/Bradanicline (percent quench): 78.43%
[7]
  YFP fluorescence quenching using CNL001 (percent quench): 81.465%
[8]
  YFP fluorescence quenching using CNL001 (percent quench): 81.297%
50 nM abt (ABT-126)
  YFP fluorescence quenching using ABT-126 (percent quench): −11.64%
[9]
  YFP fluorescence quenching using CNL001 (percent quench): 82.619%
[10]
  YFP fluorescence quenching using CNL001 (percent quench): 81.722%
100 nM CNL002
  YFP fluorescence quenching (percent quench): 76.37%
100 nM abt (ABT-126)
  YFP fluorescence quenching using ABT-126 (percent quench): 34.79%
100 nM azd0328
  YFP fluorescence quenching using AZD-0328 (percent quench): 82.1%
300 nM TC-6683
  YFP fluorescence quenching using TC-6683 (percent quench): −13.17%
300 nM abt (ABT-126)
  YFP fluorescence quenching using ABT-126 (percent quench): 60.08%
300 nM azd0328
  YFP fluorescence quenching using AZD-0328 (percent quench): 82.52%
[11]
  YFP fluorescence quenching using TC-5619/Bradanicline (percent quench): 77.12%
[12]
  YFP fluorescence quenching using CNL001 (percent quench): 81.96%
[13]
  YFP fluorescence quenching using CNL001 (percent quench): 81.773%
1 uM CNL002
  YFP fluorescence quenching (percent quench): 80.18%
1 uM abt (ABT-126)
  YFP fluorescence quenching using ABT-126 (percent quench): 65.99%
3 uM TC-6683
  YFP fluorescence quenching using TC-6683 (percent quench): −5.46%
10 uM ach (acetylcholine)
  YFP fluorescence quenching (percent quench): 28.32%
30 uM CNL002
  YFP fluorescence quenching (percent quench): 80.93%
30 uM TC-6683
  YFP fluorescence quenching using TC-6683 (percent quench): 8.53%
30 uM azd0328
  YFP fluorescence quenching using AZD-0328 (percent quench): 82.32%
100 uM TC-6683
  YFP fluorescence quenching using TC-6683 (percent quench): 14.41%
100 uM ach (acetylcholine)
  YFP fluorescence quenching (percent quench): 81.8%
1 mM ach (acetylcholine)
  YFP fluorescence quenching (percent quench): 71.22%
3 mM ach (acetylcholine)
  YFP fluorescence quenching (percent quench): 73.7%
  YFP fluorescence quenching using Facinicline, 30 nM fac: 82.25
  YFP fluorescence quenching using Facinicline, 300 nM fac: 83.59
  YFP fluorescence quenching using Facinicline, 30 uM fac: 82.82
  YFP fluorescence quenching using TC-6987, 1 uM tc6987: 79.06
  YFP fluorescence quenching using TC-6987, 10 uM tc6987: 82.36
  YFP fluorescence quenching using TC-6987, 500 uM tc6987: 80.19
First column
  YFP fluorescence quenching using Varenicline, 3 nM var: 3.093
  YFP fluorescence quenching using Varenicline, 30 nM var: 77.097
  YFP fluorescence quenching using Varenicline, 300 nM var: 79.446
  YFP fluorescence quenching using Varenicline, 500 nM var: 80.691
  YFP fluorescence quenching using Varenicline, 1 uM var: 80.258
Second column
  YFP fluorescence quenching using Varenicline, 3 nM var: 12.327
  YFP fluorescence quenching using Varenicline, 30 nM var: 77.653
  YFP fluorescence quenching using Varenicline, 300 nM var: 79.998
  YFP fluorescence quenching using Varenicline, 500 nM var: 80.309
  YFP fluorescence quenching using Varenicline, 1 uM var: 79.509
